Experimental data reported in patent publication US20240390520A1, “GENE EDITING OF PCSK9 OR ANGPTL3 AND COMPOSITIONS AND METHODS OF USING SAME FOR TREATMENT OF DISEASE” (Verve Therapeutics, Inc., priority 2021, published 2024).

Test system: OT1 site
Test: Off-target OT1 editing, MessengerMax transfection in PHH, Targeted Amplicon sequencing
Type: cell-based, human
Settings: PHH lot STL, MessengerMax with mRNA MA079, 5,000 and 2,500 ng/mL total RNA
Method: The genomic DNA from PHH cells transfected with one of 20 sgRDNA spacer sequence variants were also tested for off-target editing percentage by targeted amplicon sequencing (FIGS. 31-32). The genomic DNA samples assessed were from cells that received doses of the total RNA of 5,000 ng/mL and 2,500 ng/mL. OT1 primer (GA0100_OT_B2) was used to measure editing percentage (A>G) in position 1-10 of the OT1 site (Table. 4). Technical replicates were performed.
Table. […] VEP Gene and VEP Consequence refer to the genomic location and functional role of OT1 as determined by the Ensembl Variant Effect Predictor (VEP) tool v98.3. […] The CADD score was determined using the Combined Annotation-Dependent Depletion v1.6 (CADD) framework, which aims to annotate and interpret human genetic variation through the integration of diverse annotations into a single measure. […] To bioinformatically assess the potential for oncogenesis due to editing at the off-target site, it was assessed whether OT1 is located within a gene in the Cancer Gene Census of the Catalogue of Somatic Mutations in Cancer (COSMIC) v92; it is not. […]

B1: GA690: ANGPTL3 sgRDNA spacer sequence variant with minimally modified tracrRNA (nucleic acid)
guide: AAGATACCTGAATAACCCTCGTTTTAGAGCTAGAAATAGCAAGTTAAAATAAGGCTAGTCCGTTATCAACTTGAAAAAGTGGCACCGAGTCGGTGCTTTT
modifications: DNA-containing spacer with minimally modified tracrRNA, spacer pattern not given here
With B1 the “off-target editing (A>G) at OT1, positions 1-10” value was “indeed edited at OT1”.
